Assays:
Test in all cases: cell_activity; PAM TTTA; U2OS; with at least one of g1/g2, which one not given
Settings in all cases: tags: V5 tag, C-terminal NLS; hairpin
ZZGY Type V-A Cas = biological target: T1, ZZGY Type V-A Cas (unidentified)
T1 chain: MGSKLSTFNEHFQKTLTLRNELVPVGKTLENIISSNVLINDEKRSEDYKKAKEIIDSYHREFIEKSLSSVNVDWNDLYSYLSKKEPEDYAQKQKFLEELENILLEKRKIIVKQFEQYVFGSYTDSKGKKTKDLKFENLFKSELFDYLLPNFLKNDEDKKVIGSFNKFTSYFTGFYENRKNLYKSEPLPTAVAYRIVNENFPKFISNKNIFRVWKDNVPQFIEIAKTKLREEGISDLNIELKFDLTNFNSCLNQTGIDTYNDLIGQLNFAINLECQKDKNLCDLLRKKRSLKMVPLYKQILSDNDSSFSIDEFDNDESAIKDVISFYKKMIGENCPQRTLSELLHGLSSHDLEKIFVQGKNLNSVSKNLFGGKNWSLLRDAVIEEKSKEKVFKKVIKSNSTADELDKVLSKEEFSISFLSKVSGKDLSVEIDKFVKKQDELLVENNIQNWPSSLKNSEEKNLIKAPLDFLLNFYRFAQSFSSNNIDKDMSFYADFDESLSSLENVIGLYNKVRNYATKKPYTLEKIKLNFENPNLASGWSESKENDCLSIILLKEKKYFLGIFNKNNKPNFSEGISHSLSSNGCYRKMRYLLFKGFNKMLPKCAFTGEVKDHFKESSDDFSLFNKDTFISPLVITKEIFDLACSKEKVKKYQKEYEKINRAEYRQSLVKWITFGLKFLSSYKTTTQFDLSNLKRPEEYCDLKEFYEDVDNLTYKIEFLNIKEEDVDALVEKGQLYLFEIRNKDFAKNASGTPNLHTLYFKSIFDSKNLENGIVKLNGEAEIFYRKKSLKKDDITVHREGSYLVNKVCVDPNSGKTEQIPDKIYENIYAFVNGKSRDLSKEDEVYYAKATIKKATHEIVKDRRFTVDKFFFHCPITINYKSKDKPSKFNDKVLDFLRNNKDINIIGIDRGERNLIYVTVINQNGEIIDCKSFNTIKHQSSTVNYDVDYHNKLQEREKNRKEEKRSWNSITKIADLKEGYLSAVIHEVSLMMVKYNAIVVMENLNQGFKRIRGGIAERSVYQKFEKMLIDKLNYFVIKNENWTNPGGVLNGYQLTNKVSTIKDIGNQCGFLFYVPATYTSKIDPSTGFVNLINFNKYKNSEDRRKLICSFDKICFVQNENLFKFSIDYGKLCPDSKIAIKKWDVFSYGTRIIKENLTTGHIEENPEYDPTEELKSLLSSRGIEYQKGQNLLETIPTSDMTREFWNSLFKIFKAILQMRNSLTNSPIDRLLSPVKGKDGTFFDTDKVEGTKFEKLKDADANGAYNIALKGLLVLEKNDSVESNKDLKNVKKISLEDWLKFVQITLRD

ZXPB Type V-A Cas = biological target: T2, ZXPB Type V-A Cas (unidentified)
T2 chain: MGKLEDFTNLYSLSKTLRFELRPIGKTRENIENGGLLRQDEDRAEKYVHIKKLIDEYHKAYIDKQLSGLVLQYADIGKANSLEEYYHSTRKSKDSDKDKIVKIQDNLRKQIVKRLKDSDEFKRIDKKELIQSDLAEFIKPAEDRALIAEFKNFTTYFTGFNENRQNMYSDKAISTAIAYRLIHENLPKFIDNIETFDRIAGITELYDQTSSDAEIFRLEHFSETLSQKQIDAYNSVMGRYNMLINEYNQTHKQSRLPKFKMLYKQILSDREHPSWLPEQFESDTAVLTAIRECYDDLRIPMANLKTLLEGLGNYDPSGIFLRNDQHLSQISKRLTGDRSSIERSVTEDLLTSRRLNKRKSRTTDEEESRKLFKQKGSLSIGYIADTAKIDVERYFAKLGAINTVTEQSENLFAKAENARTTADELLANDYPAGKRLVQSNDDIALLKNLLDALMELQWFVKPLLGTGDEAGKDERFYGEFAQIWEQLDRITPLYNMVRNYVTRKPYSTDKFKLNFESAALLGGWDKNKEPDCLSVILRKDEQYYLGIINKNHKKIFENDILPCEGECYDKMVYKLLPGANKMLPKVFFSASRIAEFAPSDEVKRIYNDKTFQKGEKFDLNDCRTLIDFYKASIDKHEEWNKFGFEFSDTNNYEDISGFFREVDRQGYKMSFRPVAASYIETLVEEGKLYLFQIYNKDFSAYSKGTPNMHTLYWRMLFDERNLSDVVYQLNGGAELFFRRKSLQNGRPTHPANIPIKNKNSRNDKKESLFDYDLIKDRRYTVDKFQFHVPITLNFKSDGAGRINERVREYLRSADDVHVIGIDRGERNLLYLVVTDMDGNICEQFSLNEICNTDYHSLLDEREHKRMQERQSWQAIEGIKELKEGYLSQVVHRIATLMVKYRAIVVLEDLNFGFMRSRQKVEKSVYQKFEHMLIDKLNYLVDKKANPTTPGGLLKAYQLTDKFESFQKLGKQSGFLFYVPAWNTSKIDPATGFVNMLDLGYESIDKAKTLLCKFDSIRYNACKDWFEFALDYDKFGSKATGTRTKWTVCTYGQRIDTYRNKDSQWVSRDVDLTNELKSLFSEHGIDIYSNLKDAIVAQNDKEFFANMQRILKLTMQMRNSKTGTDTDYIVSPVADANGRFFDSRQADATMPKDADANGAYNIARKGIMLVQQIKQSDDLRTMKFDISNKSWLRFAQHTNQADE

ZJHK Type V-A Cas = biological target: T3, ZJHK Type V-A Cas (unidentified)
T3 chain: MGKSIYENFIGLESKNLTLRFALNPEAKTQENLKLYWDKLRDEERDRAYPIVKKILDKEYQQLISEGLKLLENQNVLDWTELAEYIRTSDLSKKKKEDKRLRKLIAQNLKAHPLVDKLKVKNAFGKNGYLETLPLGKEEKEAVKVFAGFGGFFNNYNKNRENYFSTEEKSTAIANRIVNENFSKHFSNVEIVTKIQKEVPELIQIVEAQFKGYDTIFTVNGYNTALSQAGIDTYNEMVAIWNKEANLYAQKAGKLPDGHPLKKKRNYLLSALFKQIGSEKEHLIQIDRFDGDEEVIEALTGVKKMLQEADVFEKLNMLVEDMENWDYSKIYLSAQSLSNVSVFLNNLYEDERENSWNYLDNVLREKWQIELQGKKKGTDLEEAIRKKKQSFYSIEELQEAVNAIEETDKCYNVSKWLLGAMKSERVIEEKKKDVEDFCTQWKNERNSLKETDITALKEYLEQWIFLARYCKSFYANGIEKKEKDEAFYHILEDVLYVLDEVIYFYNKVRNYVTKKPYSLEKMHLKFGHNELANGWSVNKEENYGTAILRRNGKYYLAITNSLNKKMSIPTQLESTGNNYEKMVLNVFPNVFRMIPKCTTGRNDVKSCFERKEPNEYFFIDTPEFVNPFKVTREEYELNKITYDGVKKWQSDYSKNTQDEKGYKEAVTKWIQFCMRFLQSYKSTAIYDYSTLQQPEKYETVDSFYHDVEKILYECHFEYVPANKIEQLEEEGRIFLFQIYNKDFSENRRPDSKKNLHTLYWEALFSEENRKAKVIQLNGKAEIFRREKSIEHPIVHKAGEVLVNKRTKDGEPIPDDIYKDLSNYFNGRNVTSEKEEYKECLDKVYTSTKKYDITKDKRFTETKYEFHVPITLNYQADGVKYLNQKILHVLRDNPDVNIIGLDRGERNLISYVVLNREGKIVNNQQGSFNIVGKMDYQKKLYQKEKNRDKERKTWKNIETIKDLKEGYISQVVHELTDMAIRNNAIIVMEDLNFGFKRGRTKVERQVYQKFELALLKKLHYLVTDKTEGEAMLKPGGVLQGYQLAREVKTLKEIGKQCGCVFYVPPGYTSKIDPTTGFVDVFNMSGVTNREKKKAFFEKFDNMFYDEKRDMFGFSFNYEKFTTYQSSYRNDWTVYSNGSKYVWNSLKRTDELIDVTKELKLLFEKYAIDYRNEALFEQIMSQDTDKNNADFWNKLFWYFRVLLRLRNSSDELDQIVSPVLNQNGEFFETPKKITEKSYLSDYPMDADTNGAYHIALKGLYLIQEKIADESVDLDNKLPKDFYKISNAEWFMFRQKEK

B1: ZZGY crRNA EGFP-g1 ; EGFP-g1 target (ssRNA ; dsDNA)
RNA: UCUAAAGCUCUUUAAGAAUUUCUACUUUCGUAGAUCGUCGCCGUCCAGCUCGACCAGG
DNA 1: TTTACGTCGCCGTCCAGCTCGACCAGG
DNA 2: CCTGGTCGAGCTGGACGGCGACGTAAA
Which activity (ZZGY Type V-A Cas) does the source give for B1 here?
Its activity is over 20 % EGFP KO.

B2: ZXPB crRNA EGFP-g1 ; EGFP-g1 target (ssRNA ; dsDNA)
RNA: GGCUAUAAAAGCCAUAUAAUUUCUACUAUUGUAGAUCGUCGCCGUCCAGCUCGACCAGG
DNA 1: TTTACGTCGCCGTCCAGCTCGACCAGG
DNA 2: CCTGGTCGAGCTGGACGGCGACGTAAA
With B2 as the binder, how does the activity (ZXPB Type V-A Cas) read?
Its activity is over 20 % EGFP KO.

B3: ZJHK crRNA EGFP-g1 ; EGFP-g1 target (ssRNA ; dsDNA)
RNA: CUUUGAAAGAAUAUAAUUUCUACUGAAAGUGUAGAUCGUCGCCGUCCAGCUCGACCAGG
DNA 1: TTTACGTCGCCGTCCAGCTCGACCAGG
DNA 2: CCTGGTCGAGCTGGACGGCGACGTAAA
How did the activity (ZJHK Type V-A Cas) turn out when B3 was run?
The activity was over 20 % EGFP KO.
